In PMC8113551 (2021):

B1: c4G7 (antibody, V domains shown)
VH: EVQLQESGPELEMPGASVKISCKASGSSFTGFSMNWVKQSNGKSLEWIGNIDTYYGGTTYNQKFKGKATLTVDKSSSTAYMQLKSLTSEDSAVYYCARSAYYGSTFAYWGQGTLVTVS
VL: DIQMTQSPASLSASVGETVTITCRASENIYSYLAWYQQKQGKSPQLLVYNAKTLIEGVPSRFSGSGSGTQFSLKINSLQPEDFGSYFCQHHFGTPFTFGSGTELEIK
B2: ADI-15878 (antibody, V domains shown)
VH: QVQLVQSGVTLVQPGGSLRVSCAASGFTFSSYAMSWVRQAPGKGLEWVSAISGLGGSTYYADSVKGRFTISRDNSKNTLYLQMNSLRAEDTAVYYCAKDHRVWAAGYHFDYWGQGALVTVSS
VL: DIVLTQSPSTLSASVGDRVTITCRASQSISSWLAWYQQKPGEAPKLLISDASSLESGVPSRFSGSGSGTEFTLTISSLQPDDFATYYCQQYYSSPTFGGGTKVEIK
B3: c13C6 (antibody, V domains shown)
VH: DVKLLESGGGLVQPGGSLKLSCAASGFSLSTSGVGVGWFRQPSGKGLEWLALIWWDDDKYYNPSLKSQLSISKDFSRNQVFLKISNVDIADTATYYCARRDPFGYDNAMGYWGQGTSVTVS
VL: DIVMTQSPLSLSTSVGDRVSLTCKASQNVGTAVAWYQQKPGQSPKLLIYSASNRYTGVPDRFTGSGSGTDFTLTISNMQSEDLADYFCQQYSSYPLTFGAGTKLELR
B4: mAb114 (antibody, V domains shown)
VH: EVQLVESGGGLIQPGGSLRLSCAASGFALRMYDMHWVRQTIDKRLEWVSAVGPSGDTYYADSVKGRFAVSRENAKNSLSLQMNSLTAGDTAIYYCVRSDRGVAGLFDSWGQGILVTVSS
VL: DIQMTQSPSSLSASVGDRITITCRASQAFDNYVAWYQQRPGKVPKLLISAASALHAGVPSRFSGSGSGTHFTLTISSLQPEDVATYYCQNYNSAPLTFGGGTKVEIK
B5: ADI-15946 (antibody, V domains shown)
VH: EVQLVESGGGLVKPGGSLRLSCAASGFTFSNAWMSWVRQAPGKGLEWVGRIKSKTDGGTIDYAAPVKGRFTISRDDSKNTVYLQMTSLKTEDTAVYYCTTYTEDMRYFDWLLRGGETFDYWGQGTLVTVSS
VL: DIRLTQSPSSLSASVGDRVTITCRASHYISTYLNWYQQKPGKAPKLLIYAASNLQSGVPSRFSGSGFGTDFSLTISSLQPEDFATYHCQQSYSTPGRYTFGQGTKVEIK
B6: KZ52 (antibody, V domains shown)
VH: EVQLLESGGGLVKPGGSLRLSCAASGFTLINYRMNWVRQAPGKGLEWVSSISSSSSYIHYADSVKGRFTISRDNAENSLYLQMNSLRAEDTAVYYCVREGPRATGYSMADVFDIWGQGTMVTVSS
VL: not shown
B7: CA45 (antibody, V domains shown)
VH: QVQLQEWGEGLVKPSETLSLTCAVYGGSISGYYHWNWIRLPPGKGLEWIGNIDGNSASTNYNPSLKTRVTISKDTSKNQISLKVRSLTAADTAVYYCARDPGFTIFGVVITSWSGLDSWGQGAVVTVSS
VL: DIQMTQSPSSLSASVGDTVTITCRASQSISNNLAWYQQRPRRAPQLLIYAASNLASGVPSRFSGSGSGTDFTLTISSLQAEDFAAYYCQQHNTLPLTFGGGTKVEIK
B8: c2G4 (antibody, V domains shown)
VH: EVQLQESGGGLMQPGGSMKLSCVASGFTFSNYWMNWVRQSPEKGLEWVAEIRLKSNNYATHYAESVKGRFTISRDDSKRSVYLQMNTLRAEDTGIYYCTRGNGNYRAMDYWGQGTSVTVS
VL: DIQMTQSPASLSVSVGETVSITCRASENIYSSLAWYQQKQGKSPQLLVYSATILADGVPSRFSGSGSGTQYSLKINSLQSEDFGTYYCQHFWGTPYTFGGGTKLEIK
B9: mAb100 (antibody, V domains shown)
VH: QVQLQESGPGLVKPSDTLSLTCTVSGGSLSSFYWSWIRQPPGKGLEWIGYIYYSGSPNYSPSLESRVTMSVDTTRNQISLKLDSVTAADTAVYYCVRASRSYYWGSYRPTAFDSWGQGTLVTVSS
VL: SYELTQPLSVSVSPGQTAIFTCSGDNLGDKYVCWFQQRPGQSPMLLIYQDNKRPSGIPERFSGSNSGNTATLTISGTQSTDEADYYCQTWDSTVVFGGGTKLTVL

What follows are binders tested against GP[change] (Zaire ebolavirus | , UniProt Q05320) (assay: BLI).
For B1, the Kd was under 1 pM. B2 showed a Kd of under 1 pM. With B3 the Kd was under 1 pM. For B4, the Kd was under 1 pM. B5 gave a Kd of under 1 pM. Binder B6 has a Kd of under 1 pM. B7 showed a Kd of under 1 pM. B8 showed a Kd of under 1 pM. Binder B9 has a Kd of under 1 pM.
